Patent US20240124586A1 (WUXI BIOLOGICS IRELAND, published 2024)

B1: W3248-U6T5.G25-1.uIgG4.SP, bispecific anti-PD-1 x CTLA-4 (bispecific antibody)
heavy: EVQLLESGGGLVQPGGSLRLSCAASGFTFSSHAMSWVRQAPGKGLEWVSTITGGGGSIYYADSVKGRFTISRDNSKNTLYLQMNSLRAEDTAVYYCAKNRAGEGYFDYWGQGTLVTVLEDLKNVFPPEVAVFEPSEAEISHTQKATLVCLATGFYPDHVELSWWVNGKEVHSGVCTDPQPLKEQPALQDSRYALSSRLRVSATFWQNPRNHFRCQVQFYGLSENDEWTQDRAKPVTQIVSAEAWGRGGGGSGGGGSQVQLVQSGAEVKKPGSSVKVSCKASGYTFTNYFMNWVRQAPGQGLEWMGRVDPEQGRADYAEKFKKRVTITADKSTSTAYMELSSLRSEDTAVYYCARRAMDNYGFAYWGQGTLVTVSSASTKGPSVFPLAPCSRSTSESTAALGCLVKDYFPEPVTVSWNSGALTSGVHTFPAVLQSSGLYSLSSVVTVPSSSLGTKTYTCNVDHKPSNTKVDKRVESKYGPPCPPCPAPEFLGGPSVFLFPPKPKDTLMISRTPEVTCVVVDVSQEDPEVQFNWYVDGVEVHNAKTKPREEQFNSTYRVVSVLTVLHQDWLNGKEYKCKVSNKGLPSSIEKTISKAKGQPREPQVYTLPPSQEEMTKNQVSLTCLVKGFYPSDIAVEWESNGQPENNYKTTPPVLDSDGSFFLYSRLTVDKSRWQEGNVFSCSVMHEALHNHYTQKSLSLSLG
light 1: SYELTQPLSVSVALGQTARITCGGDNIGNKDVHWYQQKPGQAPVLVIYRDSNRPSGIPEGFSGSNSGNTATLTISRAQAGDEADYYCQVWDSIWVFGGGTKLTVLPDIQNPDPAVYQLRDSKSSDKSVCLFTDFDSQTQVSQSKDSDVYITDKCVLDMRSMDFKSNSAVAWSQKSDFACANAFQNSIIPEDTFFPSPESS
light 2: EIVLTQSPDFQSVTPKEKVTITCSANSALSYMYWYQQKPDQSPKLWVHGTSNLASGVPSRFSGSGSGTDFTLTINSLEAEDAATYYCHHWSNTQWTFGGGTKVEIKRTVAAPSVFIFPPSDEQLKSGTASVVCLLNNFYPREAKVQWKVDNALQSGNSQESVTEQDSKDSTYSLSSTLTLSKADYEKHKVYACEVTHQGLSSPVTKSFNRGEC
notes: IgG4 (S228P); also called WBP3248-U6T5.G25-1-uIgG4.SP; U6T5.G25.IgG4
B2: W3248-U6T1.G25R-1.uIgG4.SP, bispecific anti-PD-1 x CTLA-4 (bispecific antibody)
heavy: EVQLLESGGGLVQPGGSLRLSCAASGFTFSSHAMSWVRQAPGKGLEWVSTITGGGGSIYYADSVKGRFTISRDNSKNTLYLQMNSLRAEDTAVYYCAKNRAGEGYFDYWGQGTLVTVSSASTKGPSVFPLAPCSRSTSESTAALGCLVKDYFPEPVTVSWNSGALTSGVHTFPAVLQSSGLYSLSSVVTVPSSSLGTKTYTCNVDHKPSNTKVDKRVGGGGSGGGGSQVQLVESGGGVVQPGRSLRLSCAASGFTFSSYTMHWVRQAPGKGLEWVTFISYDGNNKYYADSVKGRFTISRDNSKNTLYLQMNSLRAEDTAIYYCARTGWLGPFDYWGQGTLVTVLEDLKNVFPPEVAVFEPSEAEISHTQKATLVCLATGFYPDHVELSWWVNGKEVHSGVCTDPQPLKEQPALQDSRYALSSRLRVSATFWQNPRNHFRCQVQFYGLSENDEWTQDRAKPVTQIVSAEAWGRYGPPCPPCPAPEFLGGPSVFLFPPKPKDTLMISRTPEVTCVVVDVSQEDPEVQFNWYVDGVEVHNAKTKPREEQFNSTYRVVSVLTVLHQDWLNGKEYKCKVSNKGLPSSIEKTISKAKGQPREPQVYTLPPSQEEMTKNQVSLTCLVKGFYPSDIAVEWESNGQPENNYKTTPPVLDSDGSFFLYSRLTVDKSRWQEGNVFSCSVMHEALHNHYTQKSLSLSLG
light 1: SYELTQPLSVSVALGQTARITCGGDNIGNKDVHWYQQKPGQAPVLVIYRDSNRPSGIPEGFSGSNSGNTATLTISRAQAGDEADYYCQVWDSIWVFGGGTKLTVLGQPKAAPSVTLFPPSSEELQANKATLVCLISDFYPGAVTVAWKADSSPVKAGVETTTPSKQSNNKYAASSYLSLTPEQWKSHKSYSCQVTHEGSTVEKTVAPTECS
light 2: not shown
notes: IgG4 (S228P); also called U6T1.G25R.IgG4

What was measured:
[1] = molecular target: T1, human PD-1 on engineered CHO-S cells (W305-CHO-S.hPro1.C6) (human, UniProt Q15116 25-288); assay: FACS binding to human PD-1 engineered cells
T1 construct: whole, on cells; also called human PD-1 engineered cells; PD-1+ cells
T1 sequence (Q15116 25-288, change not shown): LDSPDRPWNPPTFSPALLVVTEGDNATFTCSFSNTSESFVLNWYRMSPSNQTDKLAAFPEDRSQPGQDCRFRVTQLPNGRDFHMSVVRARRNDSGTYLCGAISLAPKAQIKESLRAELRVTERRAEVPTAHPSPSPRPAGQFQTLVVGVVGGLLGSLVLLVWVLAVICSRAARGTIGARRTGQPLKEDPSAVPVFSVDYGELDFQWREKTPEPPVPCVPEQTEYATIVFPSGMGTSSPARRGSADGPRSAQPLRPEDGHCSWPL
Experimental: Engineered human PD-1 expressing cells W305-CHO-S.hPro1.C6 were seeded at 1×10⁵ cells/well in U-bottom 96-well plates (COSTAR 3799). Antibodies with 3.16-fold titration in 1% BSA DPBS from 200 nM to 0.002 nM were added to the cells. The plates were incubated at 4° C. for 1 hour. After wash, […] 1:125 diluted PE-labeled goat anti-human antibody (Jackson 109-115-098) was added to each well and the plates were incubated at 4° C. for 1 hour. The binding of the antibodies onto the cells was tested by flow cytometry and the mean fluorescence intensity (MFI) was analyzed by FlowJo.

[2] = molecular target: T2, ECD of human PD-1 (SPR analyte) (human, UniProt Q15116 25-170); assay: SPR (Biacore T200), antibody captured by anti-human Fc, PD-1 ECD as analyte
T2 construct: extracellular domain; the SPR method only says ECD of PD-1; also called W305-hPro1.ECD.His
T2 sequence (Q15116 25-170): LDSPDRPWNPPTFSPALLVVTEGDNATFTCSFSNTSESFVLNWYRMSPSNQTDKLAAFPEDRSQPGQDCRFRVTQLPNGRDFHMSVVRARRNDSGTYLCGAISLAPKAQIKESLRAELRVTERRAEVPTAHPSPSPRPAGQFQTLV
Experimental: SPR technology was used to measure the on-rate constant (ka) and off-rate constant (kd) of the antibodies to ECD of CTLA-4 or PD-1. The affinity constant (KD) was consequently determined.
Biacore T200, Series S Sensor Chip CM5, Amine Coupling Kit, and 10×HBS-EP were purchased from GE Healthcare. Goat anti-human IgG Fc antibody was purchased from Jackson ImmunoResearch Lab (catalog number 109-005-098). In immobilization step, the activation buffer was prepared by mixing 400 mM EDC and 100 mM NHS immediately prior to injection. The CM5 sensor chip was activated for 420 s with the activation buffer. 30 μg/mL of goat anti-human IgG Fcγ antibody in 10 mM NaAc (pH 4.5) was then injected to Fc1-Fc4 channels for 200 s at a flow rate of 5 μL/min. The chip was deactivated by 1 M ethanolamine-HCl (GE). Then the antibodies were captured on the chip. Briefly, 4 μg/mL antibodies in running buffer (HBS-EP+) was injected individually to Fc3 channel for 30 s at a flow rate of […]. […] Regeneration buffer (10 mM Glycine pH 1.5) was injected at 10 μL min for 30 s following every dissociation phase.

[3] = molecular target: T1, human PD-1 on engineered CHO-S cells …; assay: competitive FACS on human PD-1 CHO-S cells with 5 ug/ml PD-L1 ECD.mFc (competitor: PD-L1)
Experimental: (§1) In order to test whether the bispecific antibodies could block hPD-L1 binding to hPD-1 protein, a competitive FACS was conducted. […] Plates were incubated at 4° C. for 1 hour. After wash, the binding of W315-hPro1.ECD.mFc to cell expressive human PD-1 was detected by FITC-labeled goat anti-mouse antibody (abcam 98716 1:125). The competition binding of antibodies to the cells was tested by flow cytometry and the mean fluorescence intensity (MFI) was analyzed by FlowJo.

[4] = molecular target: T1, human PD-1 on engineered CHO-S cells …; assay: FACS competition: blocks human PD-L1 protein (W315-hPro1.ECD.mFc) binding to human PD-1 engineered cells
Experimental: as §1

hCTLA4.ECD.hFc [5] = molecular target: T3, hCTLA4.ECD.hFc (human); assay: dual-binding ELISA (hCTLA4.ECD.hFc coated, detected with hPD-1-ECD.Biotin), sample kept 0 d in human serum at 37 C
T3 construct: ECD fused to a human Fc; not biotinylated; also called Human CTLA-4: W316-hPro1.ECD.hFc (in house)
T3 sequence (P16410 36-161): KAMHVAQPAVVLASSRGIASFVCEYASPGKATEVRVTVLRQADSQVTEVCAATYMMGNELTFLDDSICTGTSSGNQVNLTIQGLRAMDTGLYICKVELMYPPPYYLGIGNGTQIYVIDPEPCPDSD
Experimental: (§2) The antibodies were incubated in freshly isolated human serum at 37° C. On indicated time points, an aliquot of serum treated sample was removed from the incubator and snap frozen in liquid nitrogen, and then stored at −80° C. until ready for a dual-binding ELISA test. The frozen samples were quickly thawed immediately prior to the stability test. Briefly, plates were pre-coated with 0.5 μg/mL of hCTLA4.ECD.hFc (in house) at 4° C. overnight. After 1-hour blocking, the testing antibodies were added to the plates at various concentrations. The plates were incubated at ambient temperature for 1 hour. Following the incubation, the plates were washed three times with 300 μL per well of PBS containing 0.5% (v/v) Tween 20. Then 0.1 μg/ml hPD-1-ECD.Biotin was added to plates and the mixture was incubated for 1 hour. After washing the plates three times, Streptavidin-HRP (Lifetechnologies, #SNN1004) (1:20000 diluted) was added and incubated on the plates for 1 hour at room temperature. After washing six times with 300 μL per well of PBS containing 0.5% (v/v) Tween 20, 100 μL tetramethylbenzidine (TMB) substrate is added for the detection per well. The reaction was stopped after approximately 5 minutes by addition of 100 μL per well of 2 M HCl. The absorbance of the wells was measured at 450 nm with a multiwall plate reader (SpectraMax® M5e). […]

hCTLA4.ECD.hFc [6] = molecular target: T3, hCTLA4.ECD.hFc; assay: dual-binding ELISA (hCTLA4.ECD.hFc coated, detected with hPD-1-ECD.Biotin), sample kept 1 d in human serum at 37 C
Experimental: as §2

hCTLA4.ECD.hFc [7] = molecular target: T3, hCTLA4.ECD.hFc; assay: dual-binding ELISA (hCTLA4.ECD.hFc coated, detected with hPD-1-ECD.Biotin), sample kept 4 d in human serum at 37 C
Experimental: as §2

hCTLA4.ECD.hFc [8] = molecular target: T3, hCTLA4.ECD.hFc; assay: dual-binding ELISA (hCTLA4.ECD.hFc coated, detected with hPD-1-ECD.Biotin), sample kept 7 d in human serum at 37 C
Experimental: as §2

hCTLA4.ECD.hFc [9] = molecular target: T3, hCTLA4.ECD.hFc; assay: dual-binding ELISA (hCTLA4.ECD.hFc coated, detected with hPD-1-ECD.Biotin), sample kept 14 d in human serum at 37 C
Experimental: as §2

Binder | EC50 [1] [nM] | Kd [2] [nM] | IC50 [3] [nM] | Inhibition % [4] [%] | EC50 (hCTLA4.ECD.hFc [5]) [nM] | EC50 (hCTLA4.ECD.hFc [6]) [nM] | EC50 (hCTLA4.ECD.hFc [7]) [nM] | EC50 (hCTLA4.ECD.hFc [8]) [nM] | EC50 (hCTLA4.ECD.hFc [9]) [nM]
B1 | 1.18 | 1.32 | 1.92 | 94.4 | 0.092 | 0.0978 | 0.0944 | 0.101 | 0.0989
B2 | 0.948 | 1.24 | 1.67 | 98.6 | 0.14 | 0.147 | 0.141 | 0.145 | 0.156
